# Counter-ions that a name gives are not always drawn. Starred links: 1 amine or outer side, 2 acyl side, 3 side chain; linkers in the order of their positions; H or OH if unused. Positions of bridges follow the written chain, without caps; N, C: chain ends. Non-standard residues stand in square brackets, D forms with d. Residues, ends and D or L forms follow the SMILES beside them. Chains are numbered I, II in the order given. *: point of attachment. TATA = O=C(CC[*:1])N1CN(C(=O)CC[*:2])CN(C(=O)CC[*:3])C1; Dolaproine = CO[C@@H]([C@@H]1CCCN1)[C@@H](C)C(=O)O; Dil = CC[C@H](C)[C@H](NC)[C@@H](CC(=O)O)OC; X2 = O=C(CCCC(=O)[*:2])NCCC(=O)[*:1]; PABC = O=C(OCc1ccc(N[*:1])cc1)[*:2]; X1 = C[C@@H](N*)[C@@H](O)c1ccccc1; Hyp = O=C(O)[C@@H]1C[C@@H](O)CN1; hArg = N=C(N)NCCCC[C@H](N)C(=O)O; Cit = NC(=O)NCCC[C@H](N)C(=O)O; Pen = CC(C)(S)[C@H](N)C(=O)O; NMeV = CN[C@H](C(=O)O)C(C)C; Sar = CNCC(=O)O
# How the values were obtained:
# Stability in plasma [1] = type: in vitro ADME, SD rats; conditions: SD rat plasma, 2 μM, 37° C., up to 240 min
# Protocol: (§1) To test the stability of the compounds of the present invention in plasma from rats, Cynomolgus macaques, and humans.
# (§2) The corresponding incubation plates, including T0, T10, T30, T60, T120, and T240 incubation plates, were added with a 2 μL working solution of the compound to be tested (100 μM). Three parallel wells were prepared for each sample. Then, 98 μL of blank plasma from SD rats, Cynomolgus macaques, and humans was added to the corresponding incubation plates to which the working solution had been added. All samples were incubated in a 37° C. water bath. […] At the end of each incubation time point, the corresponding incubation plate was removed, added with stop buffer, precipitated, and centrifuged for 20 minutes. Then, 150 μL of the supernatant was analyzed by the LC-MS/MS method. The concentration of the compound to be tested in the sample was semi-quantitatively determined by the liquid chromatography-tandem mass spectrometry (LC-MS/MS) method.
# Stability in plasma [2] = type: in vitro ADME, Humans; conditions: human plasma, 2 μM, 37° C., up to 240 min
# Protocol: as §1, §2
# Stability in whole blood = type: in vitro ADME, SD rats; conditions: SD rat whole blood, 2 μM, 37° C.
# Protocol: To test the stability of the compounds of the present invention in whole blood from SD rats and Cynomolgus macaques.
# The corresponding incubation plates, including T0, T10, T30, T60, T120, and T240 incubation plates, were added with a 2 μL working solution of the compound to be tested (100 μM). Three parallel wells were prepared for each sample. Then, 98 μL of blank whole blood from SD rats and Cynomolgus macaques was added to the corresponding incubation plates to which the working solution had been added. All samples were incubated in a 37° C. water bath. […] At the end of each incubation time point, the corresponding incubation plate was removed, added with stop buffer, precipitated, and centrifuged for 20 minutes. Then, 100 μL of the supernatant was diluted with 300 μL of ultrapure water, mixed uniformly, and then analyzed by the LC-MS/MS method. The concentration of the compound to be tested in the sample was semi-quantitatively determined by the liquid chromatography-tandem mass spectrometry (LC-MS/MS) method.
# Human EphA2 = biological target: T1, Human EphA2 (Homo sapiens, UniProt P29317); experiment: Binding capacity test to EphA2 protein (SPR, Biacore 8K)
# T1 construct: purchased Sino Biological 13926-H08HD
# T1 sequence (P29317 24-534 limits assumed): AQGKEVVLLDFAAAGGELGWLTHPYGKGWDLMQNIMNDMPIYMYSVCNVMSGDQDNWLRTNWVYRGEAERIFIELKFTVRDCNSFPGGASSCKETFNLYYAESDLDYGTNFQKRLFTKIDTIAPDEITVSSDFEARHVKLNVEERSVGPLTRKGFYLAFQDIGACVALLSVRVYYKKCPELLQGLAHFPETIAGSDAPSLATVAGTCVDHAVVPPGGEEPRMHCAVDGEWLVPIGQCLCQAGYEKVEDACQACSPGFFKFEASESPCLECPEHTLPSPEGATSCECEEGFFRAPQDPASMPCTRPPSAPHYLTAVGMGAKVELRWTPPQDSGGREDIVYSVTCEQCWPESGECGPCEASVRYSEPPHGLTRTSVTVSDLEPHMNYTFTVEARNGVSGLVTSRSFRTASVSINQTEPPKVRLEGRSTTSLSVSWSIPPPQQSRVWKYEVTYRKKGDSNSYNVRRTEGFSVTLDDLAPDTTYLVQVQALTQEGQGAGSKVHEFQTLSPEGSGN
# Protocol: To detect the affinity of the compound to be tested to the target protein EphA2 using the SPR method.
# • Biacore 8K (GE Healthcare). • 96-well Plate (Cat #650101, greiner bio-one) • CM5 chip (Cat #BR-1005-30, GE Healthcare) • Amine Coupling Kit (Cat #BR-1000-50, GE Healthcare) EDC NHS 1 M ethanolamine. • 10 mM sodium acetate pH 4.5 (Cat #BR-1003-50, GE Healthcare) • DMSO (Cat #D4540, Sigma) • P20 (Cat #BR-1000-54, GE Healthcare). • PBS (Cat #BR-1006-72, GE Healthcare). • EphA2 (Cat #13926-H08HD, Sino Biological)
# In this experiment, the amino coupling method was used. The target protein EphA2 was directly immobilized on the CM5 chip using Biacore 8K. The compound to be tested as an analyte was then diluted to a required concentration gradient with a buffer (10 mM PBS, pH 7.4, 137 mM NaCl, 2.7 mM KCl, 5% DMSO, and 0.05% P20) for multi-cycle kinetic detection, in which each cycle is formed by 180 seconds of sample injection and 180 seconds of dissociation, and then the next cycle was performed, to obtain kinetic analysis data on the affinity of the target protein EphA2 to the compound to be tested. The final data were subjected to Kinetics fitting analysis based on a 1:1 model using Biacore Insight Evaluation Software (V 2.0.15.12933).
# 1) Preparation of the buffer: 10 mM PBS, pH 7.4, 137 mM NaCl, 2.7 mM KCl, 5% DMSO, and 0.05% P20.
# 2) Activation of the CM5 chip: The CM5 chip was activated with 400 mM EDC and 100 mM NHS at a flow rate of 10 μL/min for 420 seconds.
# 3) Coupling of the target protein: The target protein was diluted to 10 μg/mL with 10 mM sodium acetate (pH 4.5) and coupled at a flow rate of 10 μL/min for 284 s. The 1 #, 2 #, and 3 #channels on the chip were used in the experiment, and the coupling results were 1639.9RU, 1747.8RU, and 1702.2RU, respectively.
# 4) Blocking of the CM5 chip: The CM5 chip was blocked with 1 M ethanolamine at a flow rate of 10 μL/min for 420 seconds.
# 5) Analyte concentration: The compound to be tested was diluted with the buffer. The compound to be tested was diluted from 100 nM to 0.78 nM in a 2-fold gradient.
# 6) Sample injection analysis: Each concentration of the working solution of the compound to be tested corresponded to one cycle, with a flow rate of 30 μL/min for binding for 180 seconds and dissociating for 180 seconds. The last cycle was a 5% DMSO solvent correction cycle. 7) All results were subjected to kinetics fitting analysis based on a 1:1 model.
# The experimental data of five effective concentrations of the compounds of the present invention were selected for Kinetics fitting analysis based on a 1:1 model using Biacore Insight Evaluation Software (V 2.0.15.12933).
# [3] = Stability incubated in human plasma for 72 hours; type: in vitro ADME, Humans
# Protocol: as §2
# The experimental results obtained using the above method but extending the incubation time of the compound to be tested with human plasma to 72 hours are shown in Table 22.
smiles,measurement,setting,value
CC[C@H](C)[C@@H]([C@@H](CC(=O)N1CCC[C@H]1[C@H](OC)[C@@H](C)C(=O)N[C@H](C)[C@@H](O)c1ccccc1)OC)N(C)C(=O)[C@@H](NC(=O)[C@H](C(C)C)N(C)C(=O)OCc1ccc(NC(=O)[C@H](CCCNC(N)=O)NC(=O)[C@@H](NC(=O)CCCC(=O)NCCC(=O)N(C)CC(=O)N(C)CC(=O)N(C)CC(=O)N(C)CC(=O)N(C)CC(=O)N(C)CC(=O)N(C)CC(=O)N(C)CC(=O)N(C)CC(=O)N(C)CC(=O)N[C@H]2CCCCNC(=O)C[C@@H](C(=O)N[C@H]3CSCCC(=O)N4CN5CN(C4)C(=O)CCSC(C)(C)[C@@H](C(N)=O)NC(=O)[C@H](CCCCNC(=N)N)NC(=O)[C@H](Cc4c[nH]c6ccccc46)NC(=O)[C@@H](CC(=O)O)NC(=O)[C@@H]4CCCN4C(=O)[C@H](Cc4c[nH]cn4)NC(=O)[C@H](CC(C)C)NC(=O)[C@H](CSCCC5=O)NC(=O)[C@H](CC(C)C)NC(=O)[C@@H]4CCCN4C(=O)[C@H](CC(N)=O)NC(=O)[C@H](C(C)C)NC(=O)[C@H](CC(C)C)NC(=O)[C@@H]4C[C@@H](O)CN4C3=O)NC(=O)[C@H](CCCCNC(=N)N)NC2=O)C(C)C)cc1)C(C)C [Acetate salt of PDC_8] (I: [Sar][Sar][Sar][Sar][Sar][Sar][Sar][Sar][Sar][Sar]K[hArg]DC[Hyp]LVNPLCLHP[dD]W[hArg][Pen]-NH2 / II: V[Cit][PABC][NMeV]V[Dil][Dolaproine]-X1; lactam I:11-I:13; linker I:14-I:21-I:28 via TATA; linker I:N-II:N via X2),half-life,Stability in plasma [1],> 9.63 h
same,half-life,Stability in plasma [2],> 9.63 h
same,half-life,Stability in whole blood,9.31 h
same,Kd,Human EphA2,3.46 nM
same,MMAE generation %,[3]; test time point 0,0.1%
same,PDC_8 remaining %,[3]; test time point 0,100.0%
same,MMAE generation %,[3]; test time point 0.5,0.2%
same,"remaining at 0.5 h, 2 µM","[3]; test time point 0.5, read-out: PDC_8 remaining %",96.3%
same,MMAE generation %,[3]; test time point 1,0.5%
same,"remaining at 1 h, 2 µM","[3]; test time point 1, read-out: PDC_8 remaining %",103%
same,MMAE generation %,[3]; test time point 2,0.5%
same,"remaining at 2 h, 2 µM","[3]; test time point 2, read-out: PDC_8 remaining %",86.6%
same,MMAE generation %,[3]; test time point 4,0.6%
same,"remaining at 4 h, 2 µM","[3]; test time point 4, read-out: PDC_8 remaining %",101%
same,MMAE generation %,[3]; test time point 24,0.6%
same,"remaining at 24 h, 2 µM","[3]; test time point 24, read-out: PDC_8 remaining %",89.9%
same,MMAE generation %,[3]; test time point 48,0.0%
same,"remaining at 48 h, 2 µM","[3]; test time point 48, read-out: PDC_8 remaining %",96%
same,MMAE generation %,[3]; test time point 72,3.2%
same,"remaining at 72 h, 2 µM","[3]; test time point 72, read-out: PDC_8 remaining %",78%

# Reference: patent publication US20250121076A1, “POLYPEPTIDE DRUG CONJUGATE HAVING NOVEL STRUCTURE AND APPLICATION THEREOF” (MEDSHINE DISCOVERY INC., priority 2021, published 2025)
